{
  "source": "the supplement of paper PMC6379048",
  "experiment_in_all_cases": "EC50 of free RNA motif oligo competing protein binding to immobilised probe",
  "key": {"LSM4": {"biological_target": "T1, LSM4 (UniProt Q9Y4Z0)", "T1 sequence": "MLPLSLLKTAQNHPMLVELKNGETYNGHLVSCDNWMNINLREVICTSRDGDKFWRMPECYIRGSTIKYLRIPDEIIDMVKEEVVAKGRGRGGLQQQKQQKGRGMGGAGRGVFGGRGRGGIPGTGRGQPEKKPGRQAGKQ", "method_in_brief": "(§1)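 To obtain EC50, data were fitted with a four-parameter log-logistic model; Kd was then EC50 multiplied by a protein-dependent depletion factor. Beforehand, free RNA oligos (0 nM to 30 μM) were pre-incubated with HEK293-FT lysate (2.5 mg protein/well) for 1 h at 4°C. The lysate then spent 30 min at 4°C with the same 5′-amino-C6 oligos coupled to NHS-Sepharose beads, and bound proteins were quantified by label-free LC-MS/MS, normalised to the control.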"}, "PATL1": {"biological_target": "T2, PATL1 (UniProt Q86TB9)", "T2 sequence": "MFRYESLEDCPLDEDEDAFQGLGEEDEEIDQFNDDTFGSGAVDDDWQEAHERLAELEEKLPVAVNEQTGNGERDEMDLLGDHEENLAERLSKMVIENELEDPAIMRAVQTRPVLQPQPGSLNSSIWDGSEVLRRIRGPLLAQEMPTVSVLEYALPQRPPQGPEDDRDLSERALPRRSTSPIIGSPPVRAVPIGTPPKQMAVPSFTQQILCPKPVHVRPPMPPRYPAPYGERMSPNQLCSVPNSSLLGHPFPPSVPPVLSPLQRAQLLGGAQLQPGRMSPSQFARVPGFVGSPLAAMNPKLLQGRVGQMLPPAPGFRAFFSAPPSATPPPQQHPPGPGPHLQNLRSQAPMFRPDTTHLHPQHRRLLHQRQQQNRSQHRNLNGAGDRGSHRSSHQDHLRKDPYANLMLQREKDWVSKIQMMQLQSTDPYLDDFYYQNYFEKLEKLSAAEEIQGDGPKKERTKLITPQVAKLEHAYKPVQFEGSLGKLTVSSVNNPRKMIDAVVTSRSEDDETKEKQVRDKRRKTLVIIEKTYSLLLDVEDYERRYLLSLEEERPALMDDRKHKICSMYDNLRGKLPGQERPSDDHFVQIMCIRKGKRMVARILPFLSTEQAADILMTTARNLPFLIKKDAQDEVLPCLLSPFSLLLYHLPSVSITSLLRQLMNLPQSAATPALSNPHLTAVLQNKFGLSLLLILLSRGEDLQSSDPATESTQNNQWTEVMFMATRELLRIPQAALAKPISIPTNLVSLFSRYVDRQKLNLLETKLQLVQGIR", "method_in_brief": "as §1"}, "CSTF1": {"biological_target": "T3, CSTF1 (UniProt Q05048)", "T3 sequence": "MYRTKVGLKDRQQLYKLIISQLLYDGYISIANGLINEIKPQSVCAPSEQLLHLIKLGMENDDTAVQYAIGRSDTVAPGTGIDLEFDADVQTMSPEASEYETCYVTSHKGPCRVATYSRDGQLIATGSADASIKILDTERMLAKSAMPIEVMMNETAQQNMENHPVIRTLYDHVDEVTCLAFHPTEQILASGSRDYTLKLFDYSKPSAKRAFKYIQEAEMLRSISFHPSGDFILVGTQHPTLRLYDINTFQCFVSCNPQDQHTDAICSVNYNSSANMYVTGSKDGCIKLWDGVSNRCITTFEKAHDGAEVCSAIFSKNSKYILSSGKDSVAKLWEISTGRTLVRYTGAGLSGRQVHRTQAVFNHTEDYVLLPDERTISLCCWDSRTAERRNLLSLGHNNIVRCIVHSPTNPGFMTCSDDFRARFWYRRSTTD", "method_in_brief": "as §1"}, "HNRNPAB": {"biological_target": "HNRNPAB (UniProt Q99729)", "sequence (Q99729 whole entry)": "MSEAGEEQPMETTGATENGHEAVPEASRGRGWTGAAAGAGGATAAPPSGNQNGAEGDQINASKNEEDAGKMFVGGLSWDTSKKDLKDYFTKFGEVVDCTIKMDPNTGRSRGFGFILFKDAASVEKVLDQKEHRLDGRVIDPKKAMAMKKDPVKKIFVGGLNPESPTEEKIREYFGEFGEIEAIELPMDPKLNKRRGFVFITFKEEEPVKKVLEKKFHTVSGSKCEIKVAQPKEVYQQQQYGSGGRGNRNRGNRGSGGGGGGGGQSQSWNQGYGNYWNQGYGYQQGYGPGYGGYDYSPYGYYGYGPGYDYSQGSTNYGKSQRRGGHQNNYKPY", "method_in_brief": "as §1"}, "RBMS3": {"biological_target": "T4, RBMS3 (UniProt Q6XE24)", "T4 sequence": "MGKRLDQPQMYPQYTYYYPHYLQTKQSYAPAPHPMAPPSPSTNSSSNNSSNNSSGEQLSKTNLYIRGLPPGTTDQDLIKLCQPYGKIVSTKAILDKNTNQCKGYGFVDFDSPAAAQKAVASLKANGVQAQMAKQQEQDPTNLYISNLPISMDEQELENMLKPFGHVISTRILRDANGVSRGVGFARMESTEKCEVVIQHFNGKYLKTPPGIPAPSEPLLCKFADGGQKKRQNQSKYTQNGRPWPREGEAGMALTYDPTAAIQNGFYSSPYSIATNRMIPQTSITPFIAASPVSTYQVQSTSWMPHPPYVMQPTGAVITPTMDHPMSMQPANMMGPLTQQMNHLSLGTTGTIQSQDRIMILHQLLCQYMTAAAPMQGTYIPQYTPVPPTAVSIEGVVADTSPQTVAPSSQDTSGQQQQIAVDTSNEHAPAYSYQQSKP", "method_in_brief": "as §1"}, "RBM4": {"biological_target": "T5, RBM4 (UniProt Q9BWF3)", "T5 sequence": "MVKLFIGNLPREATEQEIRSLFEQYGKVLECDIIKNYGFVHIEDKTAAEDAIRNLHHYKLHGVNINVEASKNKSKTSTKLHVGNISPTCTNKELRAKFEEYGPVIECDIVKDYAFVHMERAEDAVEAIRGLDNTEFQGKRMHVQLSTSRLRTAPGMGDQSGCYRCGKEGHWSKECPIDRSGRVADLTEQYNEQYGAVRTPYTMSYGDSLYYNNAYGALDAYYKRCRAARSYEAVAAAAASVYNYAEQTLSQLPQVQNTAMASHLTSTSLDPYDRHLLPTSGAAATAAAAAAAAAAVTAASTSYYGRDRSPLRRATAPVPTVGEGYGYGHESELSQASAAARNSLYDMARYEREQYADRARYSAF", "method_in_brief": "as §1"}, "RPS20": {"biological_target": "RPS20 (UniProt P60866)", "method_in_brief": "as §1"}},
  "data": [
    {"sequence": "UAUUUAU", "values": [
      {"measurement": "EC50", "setting": "LSM4", "value": 599, "unit": "nM"},
      {"measurement": "EC50", "setting": "PATL1", "value": 407, "unit": "nM"},
      {"measurement": "EC50", "setting": "CSTF1", "value": 574, "unit": "nM"},
      {"measurement": "EC50", "setting": "HNRNPAB", "value": 3090, "unit": "nM"},
      {"measurement": "EC50", "setting": "RBMS3", "value": 279, "unit": "nM"}
    ]},
    {"sequence": "AAUAAA", "values": [
      {"measurement": "EC50", "setting": "LSM4", "value": 465, "unit": "nM"},
      {"measurement": "EC50", "setting": "PATL1", "value": 468, "unit": "nM"},
      {"measurement": "EC50", "setting": "CSTF1", "value": 53.9, "unit": "nM"},
      {"measurement": "EC50", "setting": "RBM4", "value": 4160, "unit": "nM"},
      {"measurement": "EC50", "setting": "RPS20", "value": 3800, "unit": "nM"},
      {"measurement": "EC50", "setting": "HNRNPAB", "value": 3010, "unit": "nM"},
      {"measurement": "EC50", "setting": "RBMS3", "value": 1180, "unit": "nM"}
    ]},
    {"sequence": "CUGUCCU", "values": [
      {"measurement": "EC50", "setting": "RBM4", "value": 371, "unit": "nM"},
      {"measurement": "EC50", "setting": "RPS20", "value": 171, "unit": "nM"}
    ]}
  ]
}
